The values that follow come from article PMC10378328, “Tissue Inhibitor of Metalloproteinases-1 Interacts with CD74 to Promote AKT Signaling, Monocyte Recruitment Responses, and Vascular Smooth Muscle Cell Proliferation” (Cells, 2023).

This test concerns the target T1, N-terminal FLAG-tagged human CD74 (human, UniProt P04233 1-296).
T1 sequence (looked up): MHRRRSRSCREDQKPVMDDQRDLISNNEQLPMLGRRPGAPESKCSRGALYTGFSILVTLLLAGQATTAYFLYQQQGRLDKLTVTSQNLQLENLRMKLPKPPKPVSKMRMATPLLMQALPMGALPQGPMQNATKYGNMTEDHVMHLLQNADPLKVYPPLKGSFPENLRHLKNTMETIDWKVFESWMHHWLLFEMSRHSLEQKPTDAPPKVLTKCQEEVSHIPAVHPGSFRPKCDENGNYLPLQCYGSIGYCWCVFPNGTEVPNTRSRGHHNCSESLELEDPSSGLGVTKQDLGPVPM
The experiment in a line: cell-based or functional assay.

B1: recombinant human TIMP-1 (tissue inhibitor of metalloproteinases-1) (natural protein)
chain: not shown
Turning to B1, the “arrest of MonoMac6 cells on a monolayer of human aortic endothelial cells under flow, TIMP-1 at 200 and 400 ng/mL, optimal concentration 200 ng/mL” value is 2 fold.
